Results from the supplement of paper PMC9732359.
± gives the uncertainty stated by the source.

Experiment: protein stability index of a GFP-peptide fusion (yeast GPS) (PSI 1-4); higher = more stable; sorted into four equal gates, so the index is relative within each strain
Conditions: pdr5∆
In short: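 The protein stability index combines read frequencies across sorting gates, each weighted by its gate number and then summed. To obtain those frequencies, a pooled yeast library of GFP fusions to tiled 17-residue yeast protein peptides, on a plasmid also expressing Cherry, was grown to mid-log phase in leucine-free medium. The cells were sorted into four equal gates by GFP/Cherry ratio before plasmid amplification by PCR and Illumina sequencing.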

Sequence	protein stability index
QIVKYARKGLTPSQIGV [RPS13]	2.97 ± 0.086

Same assay, conditions: san1∆

Sequence	protein stability index
PLKTQTKNGTPNPNNMK [GAL11]	2.73 ± 0.046
PLLAQLFKTLFKKLTKD [RPB2]	1.18 ± 0.092
PLLEAKKLVWPLHLIFA [SSN2]	1.24 ± 0.11
PLLSKKERLVRDKKEKK [SMB1]	2.72 ± 0.18
PLSAGFNYGKLPLPPSV [SIN4]	2.84 ± 0.038
PLSGLLFKNYRFNFISK [YMR129W/POM152]	1.73 ± 0.098
PLSNIKALLFFNNEKET [RPN12]	1.2 ± 0.088
PLSVATELMNRSPLVTP [SRP72]	2.4 ± 0.06
PLVQADLYEQIGIDPPR [RPT3]	2.63 ± 0.066
PMDEETKLYFDVNEKIR [RPC25]	3.01 ± 0.068
PMIKAEETPSKTNKISI [NUT1]	2.6 ± 0.06
PMNAPTPAMIPYPGSPM [DSN1]	2.99 ± 0.042
PNCLFILKLLNGFMESA [SOH1]	1.68 ± 0.18
PNGHISTKKIQVATKYA [YMR129W/POM152]	1.75 ± 0.067
PNGSGKSNVIDSMLFVF [SMC4]	2.68 ± 0.055
PNLATFISSGTSLLDSL [YJL039C/NUP192]	2.23 ± 0.057
PNTKDAMSLYHSPFPFN [PRP8]	2.63 ± 0.06
PNYLHLVSSYLNKSDLL [YML103C/NUP188]	2.21 ± 0.04
PPDIHPNLGPQLWLNSS [GRR1]	3.21 ± 0.066
PPEVTSSNCHVRQKIKT [POP1]	2.78 ± 0.073
PPKEGNYEIVFDTVSNK [YMR129W/POM152]	3.29 ± 0.26
PPLTSQYSTRHDAPRGL [SWI3]	3.14 ± 0.05
PPNNARRTYNTLEDKFL [ISW2]	1.6 ± 0.11
PPQDAEGWFYKRAASVA [RPS19A]	1.53 ± 0.14
PQEESVSPNISSASPSA [SIR3]	3.01 ± 0.034
PQIAQLPLATQQQVLNK [SNF5]	2 ± 0.13

Sequence	protein stability index
PQIVKLFDISREALSGR [ECM29]	3.59 ± 0.081
PQKNLLLKGPASTVAKT [YOR098C/NUP1]	2.68 ± 0.054
PQLTFTHVANFMNDAAA [YML103C/NUP188]	2.7 ± 0.068
PQNGNINNNINIPQQQQ [GAL11]	3.21 ± 0.082
PQNMLFEGCYYTPEESA [RPC25]	2.55 ± 0.21
PQQSRYISFIKDDRFVP [RPN2]	2.98 ± 0.044
PQRCTFAFEAIDPRHLA [POP1]	2.73 ± 0.087
PQVKIREASKDNVDFIL [RPB3]	2.88 ± 0.073
PRLDAQAIKEASYVNIP [RPS0B]	2.79 ± 0.044
PRLDDVVVDTVECAQHC [SMC4]	3.17 ± 0.092
PRLDTSKEFSAYVSGLF [YJR042W/NUP85]	2.05 ± 0.13
PRLLGPQLSKAGKFPTP [RPL1A]	2.74 ± 0.052
PRMVRDVFRLARENAPS [RPT3]	2.86 ± 0.16
PRYFSEAINGFKDETIS [SIR3]	2.46 ± 0.11
PRYHSKNSFQQALQMKA [SWP82]	1.38 ± 0.062
PSEDVAALKKTRKAARP [RPL6A]	2.95 ± 0.039
PSESEHPIRVLMASVIL [YDL116W/NUP84]	1.75 ± 0.062
PSFVKSGKLRDYQVQGL [ISW2]	3.22 ± 0.039
PSKTPEVYMRYRNFMVN [SWI3]	1.82 ± 0.14
PSLNNKISDDELERILK [RPB4]	3.06 ± 0.09
PSNESCSPWSLQISDIP [SRB5]	2.97 ± 0.039
PSSSDSNGPRAAKKRRP [RRP6]	3.28 ± 0.063
PSVIHSSVEMLLDVVKG [YDL116W/NUP84]	2.2 ± 0.057
PSYSPTSPGYSPGSPAY [RPO21]	2.33 ± 0.1
PSYVHFKVQIIELLSYL [YML103C/NUP188]	1.8 ± 0.072
PTAKDVEVIKQLSLDAS [GAL11]	1.82 ± 0.1

Sequence	protein stability index
PTDQNNQSNLNGGNNTQ [SNF2]	3.13 ± 0.079
PTIEEDLTRVYKAISAQ [FAS2]	2.75 ± 0.056
PTRIRTKSSKEFFNTLR [RRI2]	3.06 ± 0.081
PTVNRVPNYEVSEKAFL [RPN7]	1.79 ± 0.22
PVEKVQRIAKNDPEYMD [DLS1]	3.17 ± 0.12
PVKQSFIRKYINQKALR [GAL11]	1.61 ± 0.099
PVMADLNGGLQFVPELK [FAS2]	2.07 ± 0.077
PVTIWLFEQIGIRIKGK [SME1]	2.35 ± 0.066
PVTSIPSTNKKLSISNA [GAL11]	2.53 ± 0.058
PWDTSLEVGRRFSPDED [MCD1]	3.28 ± 0.15
QAAAKPSLEKSSFTFGS [YLR335W/NUP2]	2.97 ± 0.18
QAESMKFKLLNGLAIRR [RPS3]	1.48 ± 0.12
QALDAVRMRLAQLTHSL [MED8]	1.54 ± 0.065
QARDNSQVFGVARIYAS [RPS14A]	1.84 ± 0.087
QASGITAGAAANALGGL [SSN3]	2.13 ± 0.093
QAVNNLIKTLSTLHMLG [RPP1]	2.38 ± 0.071
QAYFSRLELPVDFQNDL [BRR2]	2.54 ± 0.066
QCNYSSLVFNRKLAVER [PRE5]	1.46 ± 0.19
QDDIDEMVENSSENNQI [SRP68]	2.97 ± 0.14
QDEVNKGPAIDELSSKE [NNF1]	3.34 ± 0.077
QDKMFVSNPIRKVFKPS [FAS1]	2.03 ± 0.1
QDMEAAKEVYKIHQQLL [GAL11]	3.5 ± 0.11
QDMQLKIWSVKDGSNPR [RPN14]	2.45 ± 0.1
QDPIFGSVLLTLLNFVS [ECM29]	1.5 ± 0.098
QDSMSKGTGEESNDRIN [YGR119C/NUP57]	3.23 ± 0.09
QDSNVMPGSQINSPMPQ [SNF2]	3.32 ± 0.12

Sequence	protein stability index
QDVLKGSSASSRKAHGL [POP1]	3.1 ± 0.059
QDVQRTCILHGPVAAQF [FAS1]	2.02 ± 0.08
QEEGSFEFGNMKATSNT [FAS2]	3.14 ± 0.056
QEFDSELSKEEKERLES [SMC3]	2.98 ± 0.058
QEGIEAIATTVIAHLTV [RET1]	1.84 ± 0.059
QEITTNLENHFKKSKID [SCL1]	3.1 ± 0.06
QELEKRMPMDFKGVIVK [PRE1]	2.8 ± 0.12
QELGFCELLKLTNEDPP [SSN2]	2.83 ± 0.1
QERNKIHQYLFQEGVVV [RPS10B]	1.45 ± 0.09
QFCAFDSSSNTYRSRAQ [SIN4]	2.81 ± 0.05
QFIYAGKKASLNVGNVL [RPL2A]	2.86 ± 0.11
QFSLPNGDNSTTTNTDQ [SNF12]	2.318 ± 0.014
QGATNEGYQNDINTIKL [SRP72]	2.46 ± 0.23
QGISGSQQNIVPNSSDQ [SNF2]	3.16 ± 0.041
QGIVPDIIMNPHGFPSR [RET1]	2.74 ± 0.042
QGKPYISLPKGKGIKLS [RPS4A]	2.84 ± 0.06
QGSVRRLTVSARDAPTK [QCR2]	2.92 ± 0.086
QHLQFNGSSDASSLRFG [YDL088C/ASM4]	1.99 ± 0.076
QIANDPSKKRRRDFGAP [SMD1]	2.86 ± 0.092
QIKGLQWMVSLFNNHLN [SNF2]	1.4 ± 0.14
QILSTVVEDKPLLSKKE [SMB1]	1.19 ± 0.12
QILSVAIPNGIHLQRFD [RPO21]	1.94 ± 0.1
QINQGVPSAKPLILTPP [SNF11]	2.8 ± 0.058
QIPHFNNKILEKCKEIN [BRR2]	1.88 ± 0.22
QIPTPNNTVDPGFDEFQ [CSI1]	3.04 ± 0.043
QIVDIRNKRAVQLPILK [YJL039C/NUP192]	1.43 ± 0.056
